The target of this test is RSV F on RSV-A2 virus (Respiratory syncytial virus (RSV-A2)). The test can be described thus: cell-based or functional assay.

This is an account of results in patent publication US20260258115A1 (MAPP BIOPHARMACEUTICAL, published 2026).

B1: ADI-41288 (antibody, V domains shown)
VH: EVQLVESGGGLVQPGGSLRLSCAASGFTFSSYAMSWVRQAAGKGLEWVSAISGSGDDTFYADSVKDRFIISRDSSKRKVYLQMNSLRVEDTAVYYCAKTDIMVTFGGVVVDAYYFDHWGQGTLVTVSS
VL: ETTLTQSPGTLSLSPGERATLSCRASQFVFRSYLAWYQQRPGQPPRLLIYGASSRATGIPDRFSGRGSGTEFTLTISRLEPEDFAMYYCQHYDSSPPGTFGGGTKVEIK
Consider B1, for which the “Neutralization IC50 (RSV subtype A)” value was over 25 µg/mL.

B2: ADI-41293 (antibody, V domains shown)
VH: QVQLQQSGPGLAKPSQTLSLTCTVSGGPISGVDYYWSWIRQPPGKGLEWIGYIYYSGSTYYNPSLKSRVTISVDTSKKQFSLKMSSVTAADTAVYYCARDVGATPYYYYGMDVWGQGTTVTVSS
VL: DIVLTQSPDTLSLSPGERATLSCRASQSVRSNYLAWYQHKPGQAPRLLIYGASSRVAGIPDRFSGSGSGTDFTLTISRLEPEDFAVYYCQQYGSSPPSVTFGGGTKVEIK
For the molecule B2, the “Neutralization IC50 (RSV subtype A)” value amounted to 0.159 µg/mL.

B3: ADI-41297 (antibody, V domains shown)
VH: QVQLVQSGAEVKKPGSSVKVSCKASGGTFSTDAISWVRQAPGQGLEWMGGIIPLFGTANYAQKFQGRVTITADESTSTAYMELNSLRSVDTAVYYCGRTGAFDGEVVVRPHLDLWGQGTLVTVSS
VL: QPVLTQPASVSGSPGQSITISCTGTSSDVGGYDYVSWYQHHPGKAPKLMIYEVSNRPSGVSNRFSGSKSGNTASLTISGLQADDEAAYYCSSYTRSNTLLFGGGTKLTVL
Regarding B3, the “Neutralization IC50 (RSV subtype A)” value is over 25 µg/mL.

B4: ADI-41283 (antibody, V domains shown)
VH: QVTLKESGPTLVKPTQTLTLTCTFSGFSLSTFGVAVGWIRQPPGKALEWLALIYWDDDKRYSPSLKSRLTITKDISKNQVVLTMTNMDPVDTATYYCAHRLRSLTARGVFDIWGQGTTVTVSS
VL: DIRLTQSPSSLSASVGDRVTITCRASQSINNFLNWYQQRPGKAPTLLIYSASSLQSGVPSRFSGSGSGTDFTLTISSLQPEDFATYFCQQTDSFPWTFGQGTKVEIK
With B4, the “Neutralization IC50 (RSV subtype A)” value was over 25 µg/mL.

B5: ADI-41292 (antibody, V domains shown)
VH: EVQLLESGGGVVQPGRSLRLSCAASGFSFSSYGIHWVRQAPGKGLECVALMSYDGSEKYYADSVKGRFTISRDNSKNTLYLHMNSLRREDTAVYYCAKGSHLRWSHLDYYFHLWGRGTLVTVSS
VL: DIVMTQSPSTLSASVGDRVTITCRASQSLSTWLAWYQQKPGKAPKLLISDASNLESGVPSRFSGRGSGTEFTLTISGLQPDDFATYYCQQERTFGQGTKVDIK
Consider B5, for which the “Neutralization IC50 (RSV subtype A)” value was over 25 µg/mL.

B6: ADI-41281 (antibody, V domains shown)
VH: QVQLVQSGAEVKKPGASVKVSCKASGYSFTNHGIHWVRQAPGQRLEWMGWINVANGFTAYSQNLQGRVTFTRDTSASTAYLELTSLRSEDTAVYHCARDESYCSAGYCYLYFDYWGQGTTVTVSS
VL: DIQVTQSPSSLSASVGDRVTITCRASQNIITYVNWYQQKPGKAPELLIFGASSVQSGVPSRFSGSGSGTDFTLTISSLRPDDFATYYCQQSYSNPRTFGGGTKVEIK
On to B6, for which the “Neutralization IC50 (RSV subtype A)” value is over 25 µg/mL.

B7: ADI-41294 (antibody, V domains shown)
VH: EVQLLESGGGLVQPGGSLRLSCAASGFTFSAYEMNWVRQAPGKGLEWVSYISSSGSNKHYADSVKGRFTISRDNAKNSLHLHMNSLRAEDTALYYCTRPHQEEWELLPNDAFDLWGQGTMVTVSS
VL: QSALTQPPSASGSPGQSVTISCTGTSTDVGAYTYVSWYQQHPGKAPKLIIYEVYKRPSGVPNRFFGSKSGNTASLTVSGLQAEDEADYYCSSYGGSNNFGLFGGGTKLIVL
As to B7, the “Neutralization IC50 (RSV subtype A)” value amounted to 0.0805 µg/mL.

B8: ADI-41302 (antibody, V domains shown)
VH: QVQLVESGGGVVQPGRSLRLSCAASGFTFSSYAMQWVRQAPGKGLEWVAVMTNDGDDKYYADSVRGRFTISRDNSKNTLYLQMNNLRPEDTAVYYCARDLFEWWELLGYCYAMDVWGQGTTVTVSS
VL: QSVLTQPPSASGSPGQSVTISCTGTSSDVGAYNYVSWYQQHPGKAPKLIIYEVYKRPSGVPDRFFGSKSGNTASLTVSGLQAEDEADYYCSSYAGSNTLGVFGGGTKVTVL
Take B8: the “Neutralization IC50 (RSV subtype A)” value came to 0.006 µg/mL.

B9: ADI-41285 (antibody, V domains shown)
VH: QVQLVQSGAEVKKPGSSVKVSCKASGGTFSYYAISWVRQAPGQGLEWMGGIIPILGTVKNAQKFQGRVTITADKITSIAYMELSSLRHEDTAVYYCARDYYDSSGYYYNGYGMDVWGQGTTVTVSS
VL: QSVLIQPPSASGTPGQRVTISCSGSSSNIGSNYVYWYQQLPGTAPKLLIYRNDQRPSGVPDRFSGSKSGTSASLAISGLRSGDEADYYCAAWDDSLGGPIWVFGGGTKLTVL
Turning to B9, the “Neutralization IC50 (RSV subtype A)” value is over 25 µg/mL.

B10: ADI-41286 (antibody, V domains shown)
VH: QVQLVQSGAEVKKPGASVKVSCKASGYTFISYGISWVRQAPGQGPEWMGWISTHNGNTNYAQKLQGRVTMTTDTSTSTAYMELRSLRSDDTAVYYCARDERSIAVEVYLGSTFDIWGQGTMVTVSS
VL: DIQVTQSPSSVSASVGDRVTITCRASQGISSWLAWYQQKPGKAPKLLIYAASTLQSGVPSRFSGSGSGTDFTLTISRLQPEDFATYYCQQANIFGVTFGPGTKVDIK
As for B10, the “Neutralization IC50 (RSV subtype A)” value was over 25 µg/mL.

B11: ADI-41277 (antibody, V domains shown)
VH: QVQLQESGPGLVKPSGTLSLTCAVSGGSITGRNWWSWVRQPPGKELERIGEIYHGGSTEYNPSLKGRVTISVDKSKNQFSLRLNSVTAADTAVYYCARVAHYDSNGYYIGYFDLWGRGTLVTVSS
VL: EIVLTQSPPSLSASVGDRVTITCRASQSISIYLNWYQQKPGKAPKLLIFAASSLQSGVPLRFSGSGSGTDFTLTISSLQPEDFATYYCHQSYSAPWTFGQGTKVDIK
Regarding B11, the “Neutralization IC50 (RSV subtype A)” value was over 25 µg/mL.

B12: ADI-41279 (antibody, V domains shown)
VH: QVQLVQSGAEVKKAGETLKISCRGPAHTFTSFWIGWVRQTPGKGLEWMGNIYPGDTDTTYSPSFRGQVTISADKSISTAYLQWNSLKASDTAIYYCATRVRHGYSSSGSFESWGQGTMVTVSS
VL: QSVVTQPPSVSGAPGQRITISCTGSNSNTGAGYDVHWYQQLPGAAPKLLIFANNNRPSGVPDRFSGSKSGTSASLAITGLQAEDEADYYCQSYDNSLSAYVFGTGTKLTVL
As for B12, the “Neutralization IC50 (RSV subtype A)” value was over 25 µg/mL.

B13: ADI-41287 (antibody, V domains shown)
VH: EVQLVESGGGLVQPGRSLRLSCAASGFTFDDYAMHWVRQAPGKGLEWVSSISWHSADIGYAASVEGRFTISRDNAKNSLFLQMNSLRPEDTALYYCAKEIVSTSWYSGYFQDWGQGTLVTVSS
VL: QPVLTQPRSVSGSPGQSVTISCTGTSSDVGDYNYVSWYQQHPGKAPKLMIYDVSKRPSGVPDRFSGSKSGNTASLTISGLQGEDEADYYCCSYAGRHTFVFGTATKVTVL
Regarding B13, the “Neutralization IC50 (RSV subtype A)” value came out at 5.85 µg/mL.

B14: ADI-41291 (antibody, V domains shown)
VH: QVQLQQWGAGLLKPSETLSLTCVVYGESFSDSGYYWTWIRQPPEKGLEWIGEINHGGSTSYNPSLKSRVTISVDTSENQFSLKVTSVTGADTAVYYCARLRLGCSGGSCYSRFDYWGQGTLVTVSS
VL: DIQLTQSPSSLSASVGDRVTITCRASQSINSYLNWYQQKPGKAPVLLIHAASSLQGGVPSRFSGSGSGTDFTLTISSLQPEDFATYYCQQSYNTRWTFGHGTKVDIK
For the molecule B14, the “Neutralization IC50 (RSV subtype A)” value was over 25 µg/mL.

B15: ADI-41296 (antibody, V domains shown)
VH: EVQLVESGVEVKKPGESLKISCRGSGYTFYNYWIAWVRQKPGKGLEYMGTIYLDDSETIYSPSFQGEVTISADKSINTAYLQWNSLKASDTANYYCARQMDFYFDVWGRGTLVTVSS
VL: SYELMQPPSVSVSPGQTARITCSGDPLPRESAYWYQQKPGQAPVVIIFNDIERPLGIPERFSGSRSGTTVTLTISGAQAEDEADYYCQSADSRKTFVFGTGTKLTVL
As to B15, the “Neutralization IC50 (RSV subtype A)” value is over 25 µg/mL.

B16: ADI-41299 (antibody, V domains shown)
VH: EVQLVESGGGLVHPGRSLRLSCGASGFTFRSFAMHWVRQAPGKGLEWVAVISYDGSDEYYADSVKGRFTISRDNSRNTLFLQMNRLRPEDTAIYYCARAYCSTSNCPVLDYWGQGTLVTVSS
VL: QSVLIQPASVSGSPGQSITISCTGTSSDVGGYSLVSWYQQHPGKAPKLIIFEGNKRPAGVSDRFSGSKYGDTASLTISGLQAEDEADYYCCSYAGGHSVFGGGTKVTVL
As to B16, the “Neutralization IC50 (RSV subtype A)” value was over 25 µg/mL.

B17: ADI-41284 (antibody, V domains shown)
VH: QVQLVQSGGGLVKPGGSLRLSCAASGFTFSNAWMSWVRQAPGKGLEWVGRIKSEVDGGTADYAANVKGRLTISRDDSKNMMYLQMNSLKTEDTAVYYCTTDPGVGWIFGEVKLFRTDPEYWGQGTLVTVSS
VL: QSVLTQPPSVSAAPGQKVTISCSGSSSNIGNHYVSWYQQLPGTSPKLLIYDNNKRPSGIPDRFSGSKSGTSATLGITGLQPGDEADYYCGTWDSSLSAVRVFGGGTKVTVL
Regarding B17, the “Neutralization IC50 (RSV subtype A)” value is over 25 µg/mL.

B18: ADI-41278 (antibody, V domains shown)
VH: EVQLVESGPALVKPTQTLTLTCTFSGFSLSTKRMGVSWIRQPPGKALEWLARIDWDDDKFYSTSLKTRLTISKDTSKNQVVLTLANMDPVDTATYFCARTTVYASGGYYLYYLDYWGQGTLVTVSS
VL: DIVMTQTPSSLSASVGDRVTLTCRASQRIASYVNWYHQKPGKAPNLLIYAASNLQSGVPSRFSGSGSGTDFTLTISSLQPEDFATYYCQQSYSTPLTFGQGTKLEIK
Take B18: the “Neutralization IC50 (RSV subtype A)” value was over 25 µg/mL.

B19: ADI-41280 (antibody, V domains shown)
VH: QVQLVESGPGLVKPSETLALTCTVSGGSLSTYYWSWIRQPPGKGLEWIGYIYYSGTTYYNPSLKSRVTISEDRSKNQFSLKLTSVTAADTAVYYCARHGPKTEFWSAQYYLELWGRGTLVTVSS
VL: EIVLTQSPGTLSLSPGERATLSCRASQSVSSDYLAWYQQKPGQAPSLLIYGVSTRATGIPDRISGSGSGTDFTLTISRLEPEDFAVYYCHQYGTSPWTFGQGTKVEIK
Consider B19, for which the “Neutralization IC50 (RSV subtype A)” value is over 25 µg/mL.

B20: ADI-41289 (antibody, V domains shown)
VH: EVQLVQSGAEVKKPGESLKISCKGSGYSFSSFWIGWVRQMPGKGLEWMGIIYPGDSDTRYSPSFQGQVTISADQSIRTAYLQWNSLKASDTGLYYCAKGGLGDVEMATIAVWGQGTLVTVSS
VL: QSVLIQPASVSGSPGQSITIPCTGTSSDVGSYNLVSWYQHHPGKAPKLIISEGSKRPLGVSNRFSGSKSGNTASLTISGLQAEDEADYYCSSYVRSRTFNYVFGTGTKLTVL
As to B20, the “Neutralization IC50 (RSV subtype A)” value was over 25 µg/mL.

B21: ADI-41282 (antibody, V domains shown)
VH: QVQLVQSGGGVVQPGRSLRLSCAASGFMFTIYSMHWVRQAPGKGLEWVAVISNDGVNKYYSDSVKGRFTISRDNSKNTLYLQMNNLRAEDTAVYYCASDIVVLVTATDYWGQGTLVTVSS
VL: ETTLTQSPVTLSLSPGERATLSCRTSQSFSSPLLAWYQQKPGQAPRLLIYGASNRATGIPDRFSGSGSGTDFTLTISRLEPVDFAVYYCQQYGSSPYTFGQGTKLEIK
In the case of B21, the “Neutralization IC50 (RSV subtype A)” value was over 25 µg/mL.
